Test results published in the RNAGym collection of RNA variant scans (doi:10.7554/elife.80360).

B1: Hairpin Ribozyme (parent)
chain: GUCCUCUUUCACGUGCGCGUGAAAGAGAGAAGUGAACCAGAGAAACACACGUUGUGGUAUAUUACCUGGUA

Variants of: B1
Assay: self-cleavage, relative activity (ratio to wild type); higher = more cleavage; co-transcriptional

Variant	self-cleavage
A23G A64C	0.2
A24C A30G	0.201
A24C U63C	0.184
A23G C37A	0.287
A23G C37G	0.311
A22U A61U	0.198
A22U A61G	0.155
A24C G42U	0.374
A23G C48U	0.232
A23C U52G	0.489
A23C U52C	0.77
A23U A47C	0.386
A23C A71U	0.832
A24C C66U	0.395
A24U A59U	0.185
A23U G51C	0.832
A23U G51A	0.844
A23U A61G	0.125
A23U A61C	0.126
G25A A31G	0.127
A23U A41C	0.798
A24U A43C	0.174
A23C U62G	0.0867
A24U U60C	1.09

Variant	self-cleavage
A24C A64C	0.192
A23G A35U	0.626
A23G A35C	1
A23C A64G	0.646
A23U U33A	0.153
A23G U60G	0.516
A23G U60C	0.924
A24C G40U	0.132
A24G A36C	0.466
A23G U70C	0.934
A24U C50A	0.346
G25A C48U	0.135
G25A C48A	0.176
A23G C46G	0.245
A23G C46A	0.132
A23G C65U	0.349
A23C A47G	0.132
A23U U62A	0.106
A24U G40U	0.187
A24U G40A	0.281
A22U G40A	0.218
A22U G40U	0.115
A24G A61U	0.084
A23G U63G	0.338

Variant	self-cleavage
A22U G25U	0.253
A23G A26G	0.648
A23G A26C	0.524
A24C A59U	0.204
A22U U55G	0.298
A24G G68A	0.172
G25A A43G	0.133
A24C G34C	1.07
A24C G34U	1.43
G25A C37G	0.134
G25A C37A	0.199
A24C G32U	0.166
A23C C37A	0.18
A23U G54A	0.551
A24U G69A	0.327
A24C G68A	0.233
A24C A49U	0.119
A23U G42A	0.214
G25A A28U	0.585
G25A A28C	0.394
A23C G29C	0.126
A22U C38U	0.41
A22U C38A	0.155
A23U U52G	0.753

Variant	self-cleavage
A23C G27C	0.187
A23C G27A	0.464
G25A A71C	1.1
G25A A49G	0.275
A24U U52C	0.723
A23C A39G	0.248
A23C C46G	0.092
A23U G27U	0.289
A23C G54C	0.337
G25A A47G	0.277
A24C C48U	0.216
G25A A26U	0.175
A23U C48G	0.226
A23G A24G	0.715
A23U G56A	0.237
A23U G56U	0.184
A24U G42C	0.394
A24U G42U	0.342
A23U G32A	0.147
A23U G32U	0.19
A23C A45G	0.173
A23C A28C	0.349
A23C A28G	0.977
A24U G68C	0.0904

Variant	self-cleavage
A24U G68A	0.361
A22U U70A	0.768
A22U U70G	0.674
A22U U62A	0.161
A22U U62C	0.127
A22U U60G	0.611
A22U U60C	0.719
A24C A35G	0.864
A24C G27A	0.341
A24C U33A	0.2
A23C A61C	0.143
A24G C38G	0.197
A24G C38A	0.125
A23U U55C	0.358
A24U A39G	0.34
A23C G40C	0.0333
A23C U53G	0.562
A23C U53C	0.702
A24C A36G	0.928
A24G G40U	0.147
A24G A49U	0.124
A24G A49G	0.352
A24U G27C	0.194
A23G C66U	0.456

Variant	self-cleavage
A24G U62C	0.257
A24G U62G	0.0667
A24U A64C	0.142
A24U A64U	0.0963
A23U U53G	0.696
A23U U53A	0.969
A23U U53C	0.935
A23C A59C	0.193
A23C A59G	0.143
A24U G57C	0.181
A23C A43U	0.115
G25A A59G	0.138
A22U C46G	0.166
A23C C50G	0.259
A23C C50U	0.373
A23C C50A	0.318
A24G C48U	0.179
A24G C48G	0.181
A23G G25A	0.413
A23G G25U	0.357
A24G C66A	0.214
A24G C66U	0.403
A22U G69U	0.259
A24U A36U	0.41

Variant	self-cleavage
A24U A61C	0.0949
A23U A26G	0.88
A24G A45G	0.104
A24U A45G	0.241
G25A A44G	0.158
G25A A44C	0.139
A24G U53C	0.881
A24U G32C	0.114
A24U G32A	0.15
A24C G54A	0.547
G25A A64G	0.469
A24G G25U	0.527
G25A A61U	0.0154
A23U U58A	0.539
A24U A35U	0.584
A24U A35C	0.951
A23G A28G	1.23
A24G U55G	0.193
A23G U58A	0.662
A22U G34A	1.24
A24G A41G	0.78
A22U G68U	0.188
A22U G68A	0.389
